Read-outs that look alike come from different tables or passages of the source.
System: SARS-CoV-2
[1] = High risk population, Brazil, N = 698
[2] = High risk population, Brazil, N = 698 vs placebo N = 827
[3] = ITT population (Table 20), n=916 vs placebo 1003
[4] = ITT preliminary, n=916 vs placebo 1020

B1: pegylated interferon lambda-1a (protein)
chain: MKPTTTGKGCHIGRFKSLSPQELASFKKARDALEESLKLKNWSCSSPVFPGNWDLRLLQVRERPVALEAELALTLKVLEAAAGPALEDVLDQPLHTLHHILSQLQACIQPQPTAGPRPRGRLHHWLHRLQEAPKKESAGCLEASVTFNLFRLLTRDLKYVADGNLSLRTSTHPEST
modifications: PEG
notes: 180 mcg subcutaneous injection
[1]
  Hospitalization or ER (any duration) for COVID-19: total: 76
  Hospitalization or ER >6 h for COVID-19: percentage: (3.2%)
  Hospitalization or ER >6 h for COVID-19: total: 22
  Mechanical ventilation: percentage: (0.6%)
  Mechanical ventilation: total: 4
[2]
  All cause ER visit >6 h, hospitalization, or death: Pr (Superiority): 0.981
  All cause ER visit >6 h, hospitalization, or death: RR (95% CrI), estimated treatment effect: 0.64 (0.42, 0.97)
  All cause ER visit, hospitalization, or death: Pr (Superiority): 0.883
  All cause ER visit, hospitalization, or death: RR (95% CrI), estimated treatment effect: 0.86 (0.68, 1.10)
  All cause death or hospitalization due to COVID-19: Pr (Superiority): 0.924
  All cause death or hospitalization due to COVID-19: RR (95% CrI), estimated treatment effect: 0.69 (0.41, 1.14)
  Days of hospitalization: MD (95% CrI), estimated treatment effect: −1.39 (−4.38, 1.20)
  Days of hospitalization: Pr (Superiority): 0.8509
  Days on mechanical ventilation: MD (95% CrI), estimated treatment effect: −4.47 (−6.89, 3.09)
  Days on mechanical ventilation: Pr (Superiority): 0.9052
  Days to death for COVID-19: HR (95% CrI), estimated treatment effect: 0.23 (0.01, 1.79)
  Days to death for COVID-19: Pr (Superiority): 0.9080
  Days to hospitalization for COVID-19: HR (95% CrI), estimated treatment effect: 0.58 (0.33, 0.98)
  Days to hospitalization for COVID-19: Pr (Superiority): 0.9780
  Days to hospitalization or ER visit >6 h for COVID-19: HR (95% CrI), estimated treatment effect: 0.47 (0.28, 0.76)
  Days to hospitalization or ER visit >6 h for COVID-19: Pr (Superiority): 0.9992
  Days to hospitalization or death for COVID-19: HR (95% CrI), estimated treatment effect: 0.62 (0.35, 1.05)
  Days to hospitalization or death for COVID-19: Pr (Superiority): 0.9610
  Days to recovery: HR (95% CrI), estimated treatment effect: 0.93 (0.83, 1.04)
  Days to recovery: Pr (Superiority): 0.8862
  Death due to COVID-19: Pr (Superiority): 0.845
  Death due to COVID-19: RR (95% CrI), estimated treatment effect: 0.42 (0.05, 2.08)
  Death or hospitalization due to COVID-19: Pr (Superiority): 0.961
  Death or hospitalization due to COVID-19: RR (95% CrI), estimated treatment effect: 0.63 (0.37, 1.05)
  Hospitalization for COVID-19 (excluding those resulting in death): Pr (Superiority): 0.928
  Hospitalization for COVID-19 (excluding those resulting in death): RR (95% CrI), estimated treatment effect: 0.67 (0.39, 1.14)
  Hospitalization or ER (any duration) for COVID-19: Pr (Superiority): 0.991
  Hospitalization or ER (any duration) for COVID-19: RR (95% CrI), estimated treatment effect: 0.72 (0.56, 0.95)
  Hospitalization or ER >6 h for COVID-19: Pr (Superiority): 0.999
  Hospitalization or ER >6 h for COVID-19: RR (95% CI), estimated treatment effect: 0.49 (0.30, 0.78)
  Mechanical ventilation: Pr (Superiority): 0.717
  Mechanical ventilation: RR (95% CrI), estimated treatment effect: 0.72 (0.21, 2.21)
[3]
  All cause ER visit >6 h, hospitalization, or death, % of patients: (3.7%)
  All cause ER visit >6 h, hospitalization, or death, Pr (Superiority): 0.987
  All cause ER visit >6 h, hospitalization, or death, RR (95% CrI) vs placebo: 0.64 (0.42, 0.95)
  All cause ER visit, hospitalization, or death, % of patients: (13.5%)
  All cause ER visit, hospitalization, or death, Pr (Superiority): 0.831
  All cause ER visit, hospitalization, or death, RR (95% CrI) vs placebo: 0.90 (0.72, 1.12)
  All cause death or hospitalization due to COVID-19, % of patients: (2.6%)
  All cause death or hospitalization due to COVID-19, RR (95% CrI) vs placebo: 0.66 (0.40, 1.07)
  Days of hospitalization, IRR (95% CrI) vs placebo: −1.02 (−3.86, 1.37)
  Days on mechanical ventilation, IRR (95% CrI) vs placebo: −4.47 (−6.89, 3.09)
  Days to death for COVID-19, HR (95% CrI) vs placebo: 0.22 (0.01, 1.64)
  Days to hospitalization for COVID-19, HR (95% CrI) vs placebo: 0.57 (0.33, 0.95)
  Days to hospitalization or ER visit >6 h for COVID-19, HR (95% CrI) vs placebo: 0.47 (0.29, 0.73)
  Days to hospitalization or ER visit >6 h for COVID-19, Pr (Superiority): 0.999
  Days to hospitalization or death for COVID-19, HR (95% CrI) vs placebo: 0.59 (0.35, 1.00)
  Days to recovery, HR (95% CrI) vs placebo: 0.94 (0.85, 1.05)
  Death due to COVID-19, % of patients: (0.1%)
  Death due to COVID-19, RR (95% CrI) vs placebo: 0.40 (0.05, 1.95)
  Death or hospitalization due to COVID-19, % of patients: (2.4%)
  Death or hospitalization due to COVID-19, RR (95% CrI) vs placebo: 0.61 (0.36, 0.99)
  Hospitalization or ER (any duration) for COVID-19, % of patients: (10.8%)
  Hospitalization or ER (any duration) for COVID-19, Pr (Superiority): 0.981
  Hospitalization or ER (any duration) for COVID-19, RR (95% CrI) vs placebo: 0.78 (0.61, 0.99)
  Hospitalization or ER >6 h for COVID-19, % of patients: (2.7%)
  Hospitalization or ER >6 h for COVID-19, Pr (Superiority): 0.999
  Hospitalization or ER >6 h for COVID-19, RR (95% CI) vs placebo: 0.49 (0.30, 0.76)
  Mechanical ventilation, % of patients: (0.4%)
  Mechanical ventilation, RR (95% CrI) vs placebo: 0.66 (0.20, 2.03)
ITT preliminary, n=916
  Days to hospitalization for COVID-19, IQR: 3.0
  Days to hospitalization for COVID-19, Mean: 5.10
  Days to hospitalization for COVID-19, Median: 4.0
  Days to hospitalization or ER visit ≥6 h for COVID-19, IQR: 3.0
  Days to hospitalization or ER visit ≥6 h for COVID-19, Mean: 5.8
  Days to hospitalization or ER visit ≥6 h for COVID-19, Median: 4.0
  Days until death due to COVID-19, IQR: 16.0
  Days until death due to COVID-19, Mean: 22
  Days until death due to COVID-19, Median: 22.0
ITT preliminary, n=916, 28 days
  Any cause Death, % of patients: (0.3%)
[4]
  ER visits over 6 hrs, % of patients: 0.7%
  Relative Reduction in Risk, Deaths: 0.72
  Relative Reduction in Risk, ER visits over 6 hrs: 0.68
  Relative Reduction in Risk, Hospitalizations: 0.43
  Relative Reduction in Risk, Hospitalizations or ER visits over 6 hrs: 0.50
ITT preliminary, n=916 vs placebo 1020, 28 days
  Death due to COVID-19, RR (95% CrI) vs placebo: 0.40 (0.05, 2.00)

— patent US20230201308A1, “TREATMENT OF CORONAVIRUS INFECTION WITH […]” (Eiger Biopharmaceuticals, Inc., priority 2020, published 2023)
